B1: mouse IgG1 15C1 (antibody, V domains shown)
VH: DVQLQESGPDLIQPSQSLSLTCTVTGYSITGGYSWHWIRQFPGNKLEWMGYIHYSGYTDFNPSLKTRISITRDTSKNQFFLQLNSVTTEDTATYYCARKDPSDGFPYWGQGTLVTVSA
VL: DIVMTQSPATLSVTPGDRVSLSCRASQSISDHLHWYQQKSHESPRLLIKYASHAISGIPSRFSGSGSGTDFTLSIKSVEPEDIGVYYCQNGHSFPLTFGAGTKLELK
notes: Murine IgG1/K antibody; The hybridoma-derived and the PEAK-cell recombinant forms are treated as one molecule; also called mu15C1; murine 15C1
B2: chimeric MAb with the 15C1 variable region on a human IgG4 backbone (antibody, V domains shown)
VH: B1 VH
VL: B1 VL
notes: also called hIgG4 15C1; human IgG4 version of 15C1
B3: chimeric IgG1 15C1 (antibody, V domains shown)
VH: B1 VH
VL: B1 VL
notes: also called chimeric 15C1; 15C1 on a human IgG1 backbone
B4: A mu 231-261 CH2 chimeric IgG1 15C1 (antibody, V domains shown)
VH: B1 VH
VL: B1 VL
notes: It is built that way here; copies: 2 + 2
B5: B mu 319-340 CH2 chimeric IgG1 15C1 (antibody, V domains shown)
VH: B1 VH
VL: B1 VL
notes: as for B4
B6: C mu 296-318 CH2 chimeric IgG1 15C1 (antibody, V domains shown)
VH: B1 VH
VL: B1 VL
notes: copies: 2 + 2
B7: D mu 262-295 CH2 chimeric IgG1 15C1 (antibody, V domains shown)
VH: B1 VH
VL: B1 VL
notes: copies: 2 + 2
B8: muCH2-chimeric IgG1 15C1 (antibody, V domains shown)
VH: B1 VH
VL: B1 VL
notes: domain: CH1 and hinge; The CH2 domain of human IgG1 is replaced with that of mouse IgG1; Limits are in EU numbering; also called chimeric IgG1 15C1 containing mouse CH2; muCH2 chim 15C1; not shown: mouse IgG1 heavy chain CH2 domain, EU positions 231 to 340; human IgG1 heavy chain CH3 domain (after EU position 340); human Kappa light chain constant region
B9: huCH2-mouse IgG1 15C1 (antibody, V domains shown)
VH: B1 VH
VL: B1 VL
notes: domain: CH1 and hinge; The CH2 domain of mouse IgG1 is replaced with that of human IgG1; Limits are in EU numbering; also called mouse IgG1 15C1 containing human CH2; not shown: human IgG1 heavy chain CH2 domain, EU positions 231 to 340; mouse IgG1 heavy chain CH3 domain (after EU position 340); mouse kappa light chain constant region
B10: chimeric IgG1 15C1 mutant # C (SAAF at EU positions 325 to 328) (antibody, V domains shown)
VH: B1 VH
VL: B1 VL
notes: Positions are in EU numbering; not shown: human IgG1 heavy chain constant region; human Kappa light chain constant region
B11: chimeric IgG1 15C1 mutant # D (SAAL at EU positions 325 to 328) (antibody, V domains shown)
VH: B1 VH
VL: B1 VL
notes: as for B10
B12: chimeric IgG1 15C1 mutant # E (NAAL at EU positions 325 to 328) (antibody, V domains shown)
VH: B1 VH
VL: B1 VL
notes: as for B10
B13: chimeric IgG1 15C1 mutant # F (SKAF at EU positions 325 to 328) (antibody, V domains shown)
VH: B1 VH
VL: B1 VL
notes: as for B10
B14: chimeric IgG1 15C1 mutant # G (NAAF at EU positions 325 to 328) (antibody, V domains shown)
VH: B1 VH
VL: B1 VL
notes: as for B10
B15: chimeric IgG1 15C1 mutant # H (NKAF at EU positions 325 to 328) (antibody, V domains shown)
VH: B1 VH
VL: B1 VL
notes: as for B10
B16: 15C1 humanized VH mutant 1 together with 15C1 humanized VL A26 (antibody, human IgG1, V domains shown)
VH: QVQLQESGPGLVKPSDTLSLTCAVSGYSITGGYSWHWIRQPPGKGLEWMGYIHYSGYTDFNPSLKTRITISRDTSKNQFSLKLSSVTAVDTAVYYCARKDPSDAFPYWGQGTLVTVSS
VL: EIVLTQSPDFQSVTPKEKVTITCRASQSISDHLHWYQQKPDQSPKLLIKYASHAISGVPSRFSGSGSGTDFTLTINSLEAEDAATYYCQNGHSFPLTFGGGTKVEIK
notes: also called version VH mutant 1

Target: T1, human TLR4/MD2 complex expressed on the cell surface (human, UniProt O00206 24-839; Q9Y6Y9 19-160)
T1 construct: also called CHO TLR4/MD2 transfectants
T1 sequence (O00206 24-839 limits assumed, chain 1 of 2): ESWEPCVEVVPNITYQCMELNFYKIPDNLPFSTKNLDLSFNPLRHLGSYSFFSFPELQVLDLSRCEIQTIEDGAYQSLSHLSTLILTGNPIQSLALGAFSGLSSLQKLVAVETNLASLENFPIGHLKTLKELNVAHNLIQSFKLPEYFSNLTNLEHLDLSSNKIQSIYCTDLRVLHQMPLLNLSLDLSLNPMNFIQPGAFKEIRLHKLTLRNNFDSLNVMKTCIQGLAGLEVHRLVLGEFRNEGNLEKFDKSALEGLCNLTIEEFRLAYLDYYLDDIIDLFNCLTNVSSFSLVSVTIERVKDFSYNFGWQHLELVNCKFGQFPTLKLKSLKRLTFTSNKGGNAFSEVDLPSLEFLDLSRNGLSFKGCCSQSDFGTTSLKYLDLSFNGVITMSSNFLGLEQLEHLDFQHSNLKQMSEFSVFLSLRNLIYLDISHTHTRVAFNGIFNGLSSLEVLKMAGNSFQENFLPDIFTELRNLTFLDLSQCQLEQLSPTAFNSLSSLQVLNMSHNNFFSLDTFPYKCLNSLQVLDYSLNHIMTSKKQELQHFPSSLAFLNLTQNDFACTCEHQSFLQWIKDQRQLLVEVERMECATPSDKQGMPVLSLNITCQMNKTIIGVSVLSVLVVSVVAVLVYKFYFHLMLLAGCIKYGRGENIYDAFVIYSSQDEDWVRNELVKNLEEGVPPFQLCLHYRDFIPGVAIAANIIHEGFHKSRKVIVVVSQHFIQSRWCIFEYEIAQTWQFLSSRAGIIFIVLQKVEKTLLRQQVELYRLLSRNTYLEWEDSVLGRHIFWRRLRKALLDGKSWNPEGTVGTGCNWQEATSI
T1 sequence (Q9Y6Y9 19-160 R56G limits assumed, chain 2 of 2): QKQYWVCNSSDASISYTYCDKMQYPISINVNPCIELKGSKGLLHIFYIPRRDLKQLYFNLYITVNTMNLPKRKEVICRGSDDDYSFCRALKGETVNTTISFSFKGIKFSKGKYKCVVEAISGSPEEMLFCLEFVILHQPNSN
Experiment: binding to TLR4/MD-2 transfected CHO cells

Row | Binder | binding result
1 | B1 | binds
2 | B2 | binds

Target: T1, human TLR4/MD2 complex expressed on the …
Experiment: FACS on CHO stable cell line expressing human TLR4-MD2 complex
Protocol: Studies were then designed to evaluate which residues of the mouse CH2 domain are necessary for Fc-mediated inhibitory activity. Starting with the chimeric IgG115C1 containing the full length mouse CH2 domain, the approach was to identify the critical region of the CH2 domain by introducing a maximum number of human residues without observing a loss of the Fc-mediated inhibitory activity. The identification of these critical residues was determined by subdividing the mouse CH2 into 4 parts (A: EU positions 231 to 261; B: EU positions 319 to 340; C: EU positions 296-318 and D: EU positions 262 to 295) and introducing for each of the 4 sub-regions the corresponding CH2 amino acid sequence of a human IgG1 (see FIG. 6A). The sub-division of the mouse CH2 into four subregions was purely based on amino acid sequence homology with the human CH2. The four heavy chain mutants were engineered by overlapping PCR and recombinant MAbs expressed in PEAK. The corresponding antibodies were purified from transfected-cell supernatants by protein G affinity column chromatography and binding to CHO stable cell line expressing human TLR4-MD2 complex on their surface of the following antibodies was determined: muCH2-chimeric IgG1 15C1; chimeric IgG1 15C1; A mu 231-261 CH2 chimeric IgG1 15C1; B mu 319-340 CH2 chimeric IgG1 15C1; C mu 296-318 CH2 chimeric IgG1 15C1; and D mu 262-295 CH2 chimeric IgG1 15C1. 4×10⁵ cells/well were incubated for 30 minutes at 4° C. in 50 μl of phosphate buffered saline (PBS) with 1% bovine serum albumin (PBS-1% BSA) and either serial dilution of the appropriate antibody or an irrelevant human IgG1 isotype control. Cells were washed once with PBS-1% BSA and incubated in the same buffer with FMAT-Blue®-conjugated goat anti-human Kappa light chain antibody (1:250 dilution, Sigma K3502) for 30 minutes at 4° C. Cells were washed twice with PBS-1% BSA and analyzed using a FACScalibur® flow cytometer […] in the FL-4 channel.

Row | Binder | binding result
3 | B3 | binds
4 | B4 | binds
5 | B5 | binds
6 | B6 | binds
7 | B7 | binds

Target: T1, human TLR4/MD2 complex expressed on the …
Experiment: FACS on CHO TLR4/MD2 transfectants

Row | Binder | binding result
8 | B8 | binds
9 | B9 | binds

Target: T1, human TLR4/MD2 complex expressed on the …
Experiment: FACS on CHO stable cell line expressing human TLR4/MD2

Row | Binder | binding result
10 | B10 | binds
11 | B11 | binds
12 | B12 | binds
13 | B13 | binds
14 | B14 | binds
15 | B15 | binds

Target: T1, human TLR4/MD2 complex expressed on the …
Experiment: FACS (MFI) on CHO cells expressing human TLR4-MD2; PEAK supernatants at 0.33, 0.11 and 0.04 ug/ml
Protocol: The binding of these mutants was analyzed by FACS on cells expressing recombinant human TLR4-MD2. PEAK cells were co-transfected with 1 ug of combinations of expression vectors encoding 15C1 humanized VH mutant 1 or 2 together with 15C1 humanized VL A26 or 15C1 humanized VH 4-28 together with 15C1 humanized VL mutant 1, 2, 3 or 4 shown in Example 4 using the Trans IT-LT1 transfection reagent (Mirus Bio Corporation, Madison Wis.). All transfections were carried out in duplicates. 72 h post-transfection, PEAK cells supernatants were collected and the concentration of recombinant human IgG1/Kappa measured by ELISA. The antibody concentrations of all the supernatants were then adjusted to 0.33 μg/ml. These supernatants and two serial dilutions of 0.11 and 0.04 ug/ml were then tested for binding to CHO cells expressing human TLR4-MD2 at their surface by FACS. 5×10⁵ cells were incubated with the diluted PEAK supernatant for 1 h at 4° C.

Row | Binder | binding result
16 | B16 | binds
